From patent publication US7854918B2, “Composition for medical use having improved water-solubility of peptide and metal-labeling efficiency and preparation for medical use comprising metal-labeled peptide” (Nihon Medi-Physics Co., Ltd., priority 2004, dated 2010)
Square brackets hold non-standard residues; d marks the D form. Ends that are not written are not given here. * marks the point of attachment. Nle = CCCC[C@H](N)C(=O)O; For = O=C*

Assays:
[1] = Tc-99m labeling at room temperature, radiochemical purity by HPLC; format: physicochemical
Protocol: (§1) Peptide 1 was dissolved in the aqueous solution of arginine with pH 10 obtained in Example 2 to prepare 9.4 μM peptide/arginine solution. 25 μL of a solution of 10 mL of 0.01 M hydrochloric acid supplemented with 5 mg of stannous chloride solution was added to 700 μL of the peptide/arginine solution, and 0.6 to 1.0 GBq of Tc-99m-sodium pertechnetate (hereinafter, 99 mTcO4^−) solution was quickly added thereto to adjust the total amount to 1 mL. After the labeling procedure, the peptide concentration was diluted to 6.6 μM. After shaking for several seconds, the solution was reacted at room temperature. A portion thereof was taken on 10 minutes and 90 minutes after the labeling procedure to determine each Tc-99m labeling rate by HPLC and TLC. The HPLC and TLC analyses were performed under conditions described below.
(§2) For comparative controls, Peptide 1 was dissolved in dimethylsulfoxide (DMSO) and then diluted 10-fold with 100 mM phosphate buffer solution (hereinafter, PB) with pH 10 to prepare a peptide/DMSO/PB solution with the final peptide concentration of 9.4 μM. Alternatively, Peptide 1 was dissolved in PB to prepare a peptide/PB solution with the final peptide concentration of 9.4 μM. These solutions were labeled in the same way as in the peptide/arginine solution to determine each Tc-99m labeling rate by HPLC and TLC. After the labeling procedure, the peptide concentration was diluted to 6.6 μM.
Column: Cosmosil 5C18-AR-300 (manufactured by Nacalai Tesque, 4.6×150 mm)
Detection: ultraviolet and visible spectrophotometer (detection wavelength: 220 nm)
Radioactivity detector: STEFFI NaI scintillator (manufactured by Raytest)
Eluant A: 0.1% TFA/purified water
Eluant B: 0.1% TFA/acetonitrile
Concentration gradient: 0 min (Eluant B 20%)→25 min (Eluant B 70%)

[2] = Tc-99m labeling at room temperature, radiochemical purity by TLC; format: physicochemical
Protocol: as §1, §2
Plate: Silica Gel 60F254 (manufactured by Merck)
Developing solvent: 28% ammonia water/acetonitrile=½
Radioactivity detector: Gita NaI scintillator (manufactured by Raytest)
12.5, 25, and 50 mg of arginine was weighed, then dissolved in water, and adjusted with hydrochloric acid to pH 10 to adjust each total amount to 700 μL. Molarities in these solutions are 102.5 mM, 205 mM, and 410 mM, respectively. Peptide 1 was dissolved in these aqueous solutions of arginine to prepare respective 9.4 μM peptide/arginine solutions. 25 μL of a solution of 10 mL of 0.01 M hydrochloric acid supplemented with 5 mg of stannous chloride solution was added to each of the peptide/arginine solutions, and 0.6 to 1.0 GBq of 99 mTcO4^− solution was quickly added thereto to adjust each total amount to 1 mL. After shaking for several seconds, the solutions were reacted at room temperature. A portion thereof was taken on 30 minutes, 90 minutes, 180 minutes, 360 minutes, 24 hours, and 30 hours after the labeling procedure to determine each radiochemical purity by TLC analysis under the conditions described in Example 5.

[3] = Tc-99m labeling in DMSO/phosphate buffer solution pH 10, room temperature, 10 minutes
[4] = Tc-99m labeling in DMSO/phosphate buffer solution pH 10, room temperature, 90 minutes
[5] = Tc-99m labeling in phosphate buffer solution pH 10, room temperature, 10 minutes

**Q.** What does the source list for “formyl-Nle-Leu-Phe-Nle-Tyr-Lys(NH2)-ε(-Ser-D-Arg-Asp-Cys-Asp-Asp) (For-[Nle]LF[Nle]YKS[dR]DCDD; also: Lys(NH2): Lys α-carboxamide, Ser-D-Arg-Asp-Cys-Asp-Asp branch on Lys ε-amine) [Peptide 1]”?
**A.** Radiochemical purity (HPLC) [1, 3]: 72.0%; Radiochemical purity (HPLC) [1, 4]: 75.4%; Radiochemical purity (HPLC) [1, 5]: 55.3%; Radiochemical purity (TLC) ([2]; 102.5 mM arginine pH 10, 30 minutes after labeling): 93.3%; Radiochemical purity (TLC) ([2]; 102.5 mM arginine pH 10, 90 minutes after labeling): 92.6%; Radiochemical purity (TLC) ([2]; 102.5 mM arginine pH 10, 180 minutes after labeling): 92.6%; Radiochemical purity (TLC) ([2]; 102.5 mM arginine pH 10, 360 minutes after labeling): 91.2%; Radiochemical purity (TLC) ([2]; 102.5 mM arginine pH 10, 24 hours after labeling): 88.9%; Radiochemical purity (TLC) ([2]; 102.5 mM arginine pH 10, 30 hours after labeling): 89.8%; Radiochemical purity (TLC) ([2]; 205 mM arginine pH 10, 30 minutes after labeling): 92.0%; Radiochemical purity (TLC) ([2]; 205 mM arginine pH 10, 90 minutes after labeling): 90.8%; Radiochemical purity (TLC) ([2]; 205 mM arginine pH 10, 180 minutes after labeling): 89.7%; Radiochemical purity (TLC) ([2]; 205 mM arginine pH 10, 360 minutes after labeling): 89.7%; Radiochemical purity (TLC) ([2]; 205 mM arginine pH 10, 24 hours after labeling): 88.3%; Radiochemical purity (TLC) ([2]; 205 mM arginine pH 10, 30 hours after labeling): 87.3%; Radiochemical purity (TLC) ([2]; 410 mM arginine pH 10 (Example 6), 30 minutes after labeling): 91.6%; Radiochemical purity (TLC) ([2]; 410 mM arginine pH 10 (Example 6), 90 minutes after labeling): 89.5%; Radiochemical purity (TLC) ([2]; 410 mM arginine pH 10 (Example 6), 180 minutes after labeling): 87.1%; Radiochemical purity (TLC) ([2]; 410 mM arginine pH 10 (Example 6), 360 minutes after labeling): 85.7%; Radiochemical purity (TLC) ([2]; 410 mM arginine pH 10 (Example 6), 24 hours after labeling): 86.5%; Radiochemical purity (TLC) ([2]; 410 mM arginine pH 10 (Example 6), 30 hours after labeling): 84.9%; Radiochemical purity (TLC) [2, 3]: 45.7%; Radiochemical purity (TLC) [2, 4]: 41.9%; Radiochemical purity (TLC) [2, 5]: 28.0%; Radiochemical purity (TLC) ([2]; Tc-99m labeling in phosphate buffer solution pH 10, room temperature, 90 minutes): 33.6%
